Laboratory results as given in patent publication US20240391954A1, “MC4R AGONIST PEPTIDES” (The Regents of the University of Michigan, priority 2021, published 2024).
Starred links: 1 amine or outer side, 2 acyl side, 3 side chain; linkers in the order of their positions; H or OH if unused. Positions of bridges follow the written chain, without caps; N, C: chain ends. Non-standard residues stand in square brackets, D forms with d. Primed or numbered codes have the meaning given here. dTyr(4-OMe)″ = O-methyl-D-tyrosine, COc1ccc(C[C@@H](N[*:1])C(=O)[*:2])cc1; 1Nal = N[C@@H](Cc1cccc2ccccc12)C(=O)O; d1Nal = N[C@H](Cc1cccc2ccccc12)C(=O)O; 2Pal = N[C@@H](Cc1ccccn1)C(=O)O; 3Pal = N[C@@H](Cc1cccnc1)C(=O)O; 4Pal = N[C@@H](Cc1ccncc1)C(=O)O; Cit = NC(=O)NCCC[C@H](N)C(=O)O; Nle = CCCC[C@H](N)C(=O)O; Orn = NCCC[C@H](N)C(=O)O; Aib = CC(C)(N)C(=O)O

Tests used:
Assay in all cases: cell-based or functional assay
human MC3R = human MC3R (human, UniProt P41968 1-323)
Chain of human MC3R (P41968 whole entry): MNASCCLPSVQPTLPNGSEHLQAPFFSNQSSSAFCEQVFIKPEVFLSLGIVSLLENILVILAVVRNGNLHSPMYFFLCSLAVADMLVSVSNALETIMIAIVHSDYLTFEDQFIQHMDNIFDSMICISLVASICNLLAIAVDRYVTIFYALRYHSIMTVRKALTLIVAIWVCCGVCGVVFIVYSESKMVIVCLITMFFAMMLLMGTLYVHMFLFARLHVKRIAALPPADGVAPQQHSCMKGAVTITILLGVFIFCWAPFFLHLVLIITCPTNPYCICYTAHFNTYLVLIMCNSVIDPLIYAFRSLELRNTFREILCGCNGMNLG

human MC4R receptor [1] = target: T1, human MC4R receptor (human, UniProt P32245 1-332)
T1 sequence (P32245 whole entry): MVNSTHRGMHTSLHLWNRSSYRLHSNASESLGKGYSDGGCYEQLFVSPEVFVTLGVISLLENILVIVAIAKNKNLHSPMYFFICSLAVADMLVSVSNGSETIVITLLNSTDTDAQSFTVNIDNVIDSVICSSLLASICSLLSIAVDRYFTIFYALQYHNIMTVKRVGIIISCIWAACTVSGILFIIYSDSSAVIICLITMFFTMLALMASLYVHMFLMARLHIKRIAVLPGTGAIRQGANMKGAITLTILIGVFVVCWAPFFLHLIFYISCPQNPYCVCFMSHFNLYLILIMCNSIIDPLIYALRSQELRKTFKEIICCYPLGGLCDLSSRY

human MC4R receptor [2] = target: T1, human MC4R receptor; remark: listed apart in the source

Binder	% max activation (human MC3R)	cAMP EC50 (human MC3R)	% max activation (human MC4R receptor [1])	cAMP EC50 (human MC4R receptor [1])	MC4R selectivity vs MC1R (human MC4R receptor [2])	MC4R selectivity vs MC3R (human MC4R receptor [2])
Ac-R[Nle]C[Cit][dF]R[dW]C-NH2 (disulfide 3-8; SMILES CCCC[C@H](NC(=O)[C@H](CCCNC(=N)N)NC(C)=O)C(=O)N[C@H]1CSSC[C@@H](C(N)=O)NC(=O)[C@@H](Cc2c[nH]c3ccccc23)NC(=O)[C@H](CCCNC(=N)N)NC(=O)[C@@H](Cc2ccccc2)NC(=O)[C@H](CCCNC(N)=O)NC1=O) [CTX-1608]	19%	274 nM	79%	288 nM	2.07	0.95
Ac-RC[Aib]R[dTyr(4-OMe)″]R[dW]C-NH2 (disulfide 2-8) [CTX-1297]		> 10000 nM	97%	3.3 nM	0.52	> 3000
Ac-RC[Aib]R[dTyr(4-OMe)″]RFC-NH2 (disulfide 2-8) [CTX-1298]		> 10000 nM	93%	3.3 nM	0.12	0.93
Ac-RC[Aib][Cit][dTyr(4-OMe)″]RFC-NH2 (disulfide 2-8) [CTX-1299]		> 10000 nM	78%	65 nM	3.66	> 154
Ac-R[Nle]C[Cit]FRWC-NH2 (disulfide 3-8; SMILES CCCC[C@H](NC(=O)[C@H](CCCNC(=N)N)NC(C)=O)C(=O)N[C@H]1CSSC[C@@H](C(N)=O)NC(=O)[C@H](Cc2c[nH]c3ccccc23)NC(=O)[C@H](CCCNC(=N)N)NC(=O)[C@H](Cc2ccccc2)NC(=O)[C@H](CCCNC(N)=O)NC1=O) [CTX-1609]	65%	407 nM	96%	86 nM	4.15	4.72
Ac-RC[Aib][3Pal][dF]RFC-NH2 (disulfide 2-8; SMILES CC(=O)N[C@@H](CCCNC(=N)N)C(=O)N[C@H]1CSSC[C@@H](C(N)=O)NC(=O)[C@H](Cc2ccccc2)NC(=O)[C@H](CCCNC(=N)N)NC(=O)[C@@H](Cc2ccccc2)NC(=O)[C@H](Cc2cccnc2)NC(=O)C(C)(C)NC1=O) [CTX-1605]		> 10000 nM	85%	33 nM	0.14	> 300
Ac-RCG[Cit][dF]RWC-NH2 (disulfide 2-8) [CTX-1294]	33%	40 nM	102%	3.5 nM	111	11
Ac-R[Nle]CR[d1Nal]RWC-NH2 (disulfide 3-8; SMILES CCCC[C@H](NC(=O)[C@H](CCCNC(=N)N)NC(C)=O)C(=O)N[C@H]1CSSC[C@@H](C(N)=O)NC(=O)[C@H](Cc2c[nH]c3ccccc23)NC(=O)[C@H](CCCNC(=N)N)NC(=O)[C@@H](Cc2cccc3ccccc23)NC(=O)[C@H](CCCNC(=N)N)NC1=O) [CTX-1611]	58%	11 nM	67%	1.6 nM	0.25	6.61
Ac-RC[Aib][Orn][dF]RFC-NH2 (disulfide 2-8; SMILES CC(=O)N[C@@H](CCCNC(=N)N)C(=O)N[C@H]1CSSC[C@@H](C(N)=O)NC(=O)[C@H](Cc2ccccc2)NC(=O)[C@H](CCCNC(=N)N)NC(=O)[C@@H](Cc2ccccc2)NC(=O)[C@H](CCCN)NC(=O)C(C)(C)NC1=O) [CTX-1602]	80%	251 nM	97%	73 nM	3.65	3.44
Ac-RC[Aib][2Pal][dF]RFC-NH2 (disulfide 2-8; SMILES CC(=O)N[C@@H](CCCNC(=N)N)C(=O)N[C@H]1CSSC[C@@H](C(N)=O)NC(=O)[C@H](Cc2ccccc2)NC(=O)[C@H](CCCNC(=N)N)NC(=O)[C@@H](Cc2ccccc2)NC(=O)[C@H](Cc2ccccn2)NC(=O)C(C)(C)NC1=O) [CTX-1604]	12%	167 nM	96%	1520 nM	3.66	0.11

Now from value to binder:

% max activation (human MC3R)	cAMP EC50 (human MC3R)	% max activation (human MC4R receptor [1])	cAMP EC50 (human MC4R receptor [1])	MC4R selectivity vs MC1R (human MC4R receptor [2])	MC4R selectivity vs MC3R (human MC4R receptor [2])	Binder
94%	12 nM	101%			23	Ac-CGH[dF]RWC-NH2 (disulfide 1-7; SMILES CC(=O)N[C@H]1CSSC[C@@H](C(N)=O)NC(=O)[C@H](Cc2c[nH]c3ccccc23)NC(=O)[C@H](CCCNC(=N)N)NC(=O)[C@@H](Cc2ccccc2)NC(=O)[C@H](Cc2c[nH]cn2)NC(=O)CNC1=O) [CTX-1206]
73%	26 nM	97%	11 nM	0.93	2.3	Ac-RC[Aib]R[dF]RFC-NH2 (disulfide 2-8) [CTX-1601]
67%	163 nM	90%	247 nM	0.03	0.66	Ac-R[Nle]CH[1Nal]RWC-NH2 (disulfide 3-8; SMILES CCCC[C@H](NC(=O)[C@H](CCCNC(=N)N)NC(C)=O)C(=O)N[C@H]1CSSC[C@@H](C(N)=O)NC(=O)[C@H](Cc2c[nH]c3ccccc23)NC(=O)[C@H](CCCNC(=N)N)NC(=O)[C@H](Cc2cccc3ccccc23)NC(=O)[C@H](Cc2c[nH]cn2)NC1=O) [CTX-1610]
78%	61 nM	93%	16 nM	1.51	3.78	Ac-R[Nle]CR[dF]R[dW]C-NH2 (disulfide 3-8) [CTX-1616]
7.69%	82 nM	92%	133 nM	2.99	0.62	Ac-RC[Aib][4Pal][dF]RFC-NH2 (disulfide 2-8; SMILES CC(=O)N[C@@H](CCCNC(=N)N)C(=O)N[C@H]1CSSC[C@@H](C(N)=O)NC(=O)[C@H](Cc2ccccc2)NC(=O)[C@H](CCCNC(=N)N)NC(=O)[C@@H](Cc2ccccc2)NC(=O)[C@H](Cc2ccncc2)NC(=O)C(C)(C)NC1=O) [CTX-1606]
